The results in this text go back to article doi:10.1101/2025.07.15.665015 (bioRxiv, 2025).

Series [1] deals with T1, PKR (Homo sapiens, UniProt P19525 1-551). Put plainly: competition.
The target in series [2] is T1, PKR. Put plainly: competition. The source holds these as a separate data set.
The next series addresses PKRΔKD (Homo sapiens, UniProt P19525 1-184, del185-551). Description: single-molecule colocalization.
Series [3] deals with T1, PKR. Description: single-molecule colocalization.
Series [4] concerns the molecule itself. Put plainly: single-molecule TIRF two-colour co-localisation.
The target in series [5] is T1, PKR. Put plainly: single-molecule colocalization. The source holds these as a separate data set.

B1: 25-bp dsRNA (dsRNA)
RNA 1: GGGUUUUCCCAGUCACGACGUUGUA
RNA 2: UACAACGUCGUGACUGGGAAAACCC
Regarding B1, the binding result with PKR [1] was “binds”.

B2: 33-bp dsRNA (dsRNA)
RNA 1: GGGUUUUCCCAGUCACGACGUUGUAAAACGACG
RNA 2: CGUCGUUUUACAACGUCGUGACUGGGAAAACCC
B2: the binding result in the series with PKR [2] was “binds”.

B3: 79-bp dsRNA (dsRNA)
RNA 1: GGGUUUUCCCAGUCACGACGUUGUAAAACGACGGCCAGUGAAUUCGAGCUCGGUACCCGGGGAUCCUCUAGAGUCGACC
RNA 2: GGUCGACUCUAGAGGAUCCCCGGGUACCGAGCUCGAAUUCACUGGCCGUCGUUUUACAACGUCGUGACUGGGAAAACCC
Turning to B3, the binding result with PKRΔKD and with PKR [3] was “binds” throughout.

B4: PKR(K-E) (K150E and K154E), Cy3-labelled (enzyme, human, UniProt P19525 1-551, looked up)
chain: MAGDLSAGFFMEELNTYRQKQGVVLKYQELPNSGPPHDRRFTFQVIIDGREFPEGEGRSKKEAKNAAAKLAVEILNKEKKAVSPLLLTTTNSSEGLSMGNYIGLINRIAQKKRLTVNYEQCASGVHGPEGFHYKCKMGQKEYSIGTGSTEQEAEQLAAKLAYLQILSEETSVKSDYLSSGSFATTCESQSNSLVTSTLASESSSEGDFSADTSEINSNSDSLNSSSLLMNGLRNNQRKAKRSLAPRFDLPDMKETKYTVDKRFGMDFKEIELIGSGGFGQVFKAKHRIDGKTYVIKRVKYNNEKAEREVKALAKLDHVNIVHYNGCWDGFDYDPETSDDSLESSDYDPENSKNSSRSKTKCLFIQMEFCDKGTLEQWIEKRRGEKLDKVLALELFEQITKGVDYIHSKKLIHRDLKPSNIFLVDTKQVKIGDFGLVTSLKNDGKRTRSKGTLRYMSPEQISSQDYGKEVDLYALGLILAELLHVCDTAFETSKFFTDLRDGIISDIFDKKEKTLLQKLLSKKPEDRPNTSEILRTLTVWKKSPEKNERHTC
modifications: Cy3 at the N-terminus, by sortase-mediated ligation of the peptide Cy3-CLPETGG
For the molecule B4, the binding result in series [4] was “binds”.

B5: mini-VA (structured_RNA)
RNA: GGGUAUCAUGGCGGACGACCGGGGUUCGAACCCCGGAUCCGGCCGUCCGCCGUGAUACCC
B5: the binding result with PKR [5] is recorded as “binds”.
